# Measurements published in paper doi:10.1101/2025.09.11.675134, “Biodistribution-Driven Discovery Identifies a Glycosidase-Cleavable Linker to Reprogram Radiotheranostics” (bioRxiv, 2025).
# Read-outs that look alike come from different tables or passages of the source.
# Assay: Ex vivo biodistribution of 111In-labeled variants in AR42J xenograft mice
# Parameters: species or system athymic nude mice
# Details: athymic nude, mouse, iv, 1 ug, total radioactivity, 1 h post-injection; for tissue uptake at 1 h: AR42J tumor-bearing mice; for tissue to tissue ratio at 1 h: AR42J xenografts, read-out: Tumor-to-kidney (T/K) ratio
# Procedure: For studies involving three variants (DOTA -TATE, DOTA-MVK(ε)-TATE, and DOTA-β-Gal-TATE), AR42J cells (5 × 10^6 cells per mouse) were subcutaneously inoculated into the right shoulder of the mice. Tumors were allowed to grow for 3 weeks, reaching a volume of 100 –200 mm³ before being used in subsequent experiments. For biodistribution or PET imaging studies, mice bearing subcutaneous AR42J tumors were administered 1.4 – 1.8 MBq (1 μg) of 111In-labeled DOTA-TATE variants or 2.7 – 4.9 MBq (1 μg) of 86Y-labeled DOTA-TATE variants via tail vein injection. Biodistribution studies with 111In-labeled DOTA -TATE variants were performed 1 hour post -injection (n = 3 per cohort), while studies with 86Y-labeled DOTA-TATE variants were conducted at 1, 4, and 24 hours post -injection (n = 3 per cohort). Mice were euthanized by CO2 asphyxiation, and 10 tissues, including tumors, were collected. All samples were weighed and counted on a gamma counter (2480 Wizard 3, Perkin Elmer Inc., Waltham, MA, USA). Results are presented as percentage of injected activity per gram (%IA/g) and mean values ± standard deviations. […]
# [1] = blood, i.v. 1 μg (1.4–1.8 MBq), ex vivo gamma counting, mean, n = 3, read-out: Blood uptake
# [2] = femur, i.v. 1 μg, ex vivo, mean, n = 3, read-out: Femur uptake
# [3] = heart, i.v. 1 μg, ex vivo, mean, n = 3, read-out: Heart uptake
# [4] = kidney, i.v. 1 μg, ex vivo, mean (± SD), n = 3, read-out: Kidney uptake
# [5] = liver, i.v. 1 μg, ex vivo, mean, n = 3, read-out: Liver uptake
# [6] = lung, i.v. 1 μg, ex vivo, mean, n = 3, read-out: Lung uptake
# [7] = muscle, i.v. 1 μg, ex vivo, mean, n = 3, read-out: Muscle uptake
# [8] = spleen, i.v. 1 μg, ex vivo, mean, n = 3, read-out: Spleen uptake
# [9] = tumor (AR42J xenograft), i.v. 1 μg, ex vivo, mean (± SD), n = 3, read-out: Tumor uptake
SMILES,tissue uptake at 1 h [1] [%ID/g],tissue uptake at 1 h [2] [%ID/g],tissue uptake at 1 h [3] [%ID/g],tissue uptake at 1 h [4] [%ID/g],tissue uptake at 1 h [5] [%ID/g],tissue uptake at 1 h [6] [%ID/g],tissue uptake at 1 h [7] [%ID/g],tissue uptake at 1 h [8] [%ID/g],tissue uptake at 1 h [9] [%ID/g],also measured
"CSCC[C@H](NC(=O)CN1CCN(CC(=O)O)CCN(CC(=O)O)CCN(CC(=O)O)CC1)C(=O)N[C@H](C(=O)N[C@@H](CCCCNC(=O)CCCC(=O)N[C@H](Cc1ccccc1)C(=O)N[C@H]1CSSC[C@@H](C(=O)N[C@H](C(=O)O)[C@@H](C)O)NC(=O)[C@H]([C@@H](C)O)NC(=O)[C@H](CCCCN)NC(=O)[C@@H](Cc2c[nH]c3ccccc23)NC(=O)[C@H](Cc2ccc(O)cc2)NC1=O)C(=O)O)C(C)C [^111In-DOTA-MVK(ε)-TATE, metal not drawn]",0.73,0.55,0.29,5.56 ± 0.29,0.31,0.73,0.27,0.16,5.44 ± 0.19,"tissue uptake at 1 h (intestine, i.v. 1 μg, ex vivo, mean, n = 3, read-out: Intestine uptake): 0.81 %ID/g; tissue to tissue ratio at 1 h (tumor and kidney, ex vivo): 0.98"
"C[C@@H](O)[C@H](NC(=O)[C@@H]1CSSC[C@H](NC(=O)[C@@H](Cc2ccccc2)NC(=O)CN2CCN(CC(=O)O)CCN(CC(=O)O)CCN(CC(=O)O)CC2)C(=O)N[C@@H](Cc2ccc(O)cc2)C(=O)N[C@H](Cc2c[nH]c3ccccc23)C(=O)N[C@@H](CCCCN)C(=O)N[C@@H]([C@@H](C)O)C(=O)N1)C(=O)O [^111In-DOTA-TATE, metal not drawn, reference compound]",0.27,0.12,0.1,7.33 ± 0.04,0.23,0.49,0.06,0.1,5.67 ± 0.92,–
"C[C@@H](O)[C@H](NC(=O)[C@@H]1CSSC[C@H](NC(=O)[C@@H](Cc2ccccc2)NC(=O)CCCC(=O)Nc2cc(COC(=O)N(C)CCNC(=O)CN3CCN(CC(=O)O)CCN(CC(=O)O)CCN(CC(=O)O)CC3)ccc2O[C@@H]2O[C@H](CO)[C@H](O)[C@H](O)[C@H]2O)C(=O)N[C@@H](Cc2ccc(O)cc2)C(=O)N[C@H](Cc2c[nH]c3ccccc23)C(=O)N[C@@H](CCCCN)C(=O)N[C@@H]([C@@H](C)O)C(=O)N1)C(=O)O [^111In-DOTA-β-Gal-TATE, metal not drawn]",–,–,–,–,–,–,–,–,–,"tissue uptake at 1 h (in vivo, i.v. 1 μg (1.4–1.8 MBq), ex vivo gamma counting, mean, n = 3, read-out: Blood uptake): 0.56 %ID/g; tissue uptake at 1 h (in vivo, i.v. 1 μg, ex vivo, mean (± SD), n = 3, read-out: Kidney uptake): 5.19 ± 0.18 %ID/g; tissue uptake at 1 h (in vivo, i.v. 1 μg, ex vivo, mean (± SD), n = 3, read-out: Tumor uptake): 10.8 ± 1.11 %ID/g; tissue uptake at 1 h (in vivo, i.v. 1 μg, ex vivo, mean, n = 3, read-out: Femur uptake): 0.34 %ID/g; tissue uptake at 1 h (in vivo, i.v. 1 μg, ex vivo, mean, n = 3, read-out: Heart uptake): 0.29 %ID/g; tissue uptake at 1 h (in vivo, i.v. 1 μg, ex vivo, mean, n = 3, read-out: Intestine uptake): 0.79 %ID/g; tissue uptake at 1 h (in vivo, i.v. 1 μg, ex vivo, mean, n = 3, read-out: Liver uptake): 0.45 %ID/g; tissue uptake at 1 h (in vivo, i.v. 1 μg, ex vivo, mean, n = 3, read-out: Lung uptake): 0.92 %ID/g; tissue uptake at 1 h (in vivo, i.v. 1 μg, ex vivo, mean, n = 3, read-out: Muscle uptake): 0.17 %ID/g; tissue uptake at 1 h (in vivo, i.v. 1 μg, ex vivo, mean, n = 3, read-out: Spleen uptake): 0.21 %ID/g; tissue to tissue ratio at 1 h (ex vivo): 2.08"
